Measurements taken from article PMC8038949, “Structural basis for the DNA-binding activity of human ARID4B Tudor domain”.

Biological target: T1, ARID4B TD121 E50L (Homo sapiens, UniProt Q4LE39 1-121, E50L)
T1 sequence: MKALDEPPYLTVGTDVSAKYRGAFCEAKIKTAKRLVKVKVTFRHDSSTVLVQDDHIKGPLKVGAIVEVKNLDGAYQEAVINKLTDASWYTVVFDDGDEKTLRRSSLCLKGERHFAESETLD
Test: EMSA; stronger than wild-type ARID4B TD121; 50 mM Tris-HCl pH 7.6, 50 mM NaCl (buffer A); ITC 25 C; EMSA 4 C, 12 uM DNA, 8% native gel in TBE; NMR titration by 1H-15N HSQC (temperature not stated for titration; buffer A also defined elsewhere as 20 mM phosphate, 100 mM NaCl, pH 7.0)
Details: protein: recombinant; 5' overhang 1 nt on each strand (17 bp paired)

B1: dsDNA1 (dsDNA)
DNA 1: CTCAGGTCAAAGGTCACG
DNA 2: TCGTGACCTTTGACCTGA
B1: binds.
